Here are results for one molecule from paper doi:10.1101/2022.04.12.488087 (bioRxiv, 2022).

The target in the test is SARS-CoV-1 wild type RBD (SARS-CoV-1 (P59594 / NP_828851.1, …)). Description: crystal structure.

B1: nanobody Nb70 (VHH with 6xHis tag, for crystal structural analysis) (VHH)
VHH: QVQLVESGGGLVQAGGSLRLSCVASGRTFSRYAMGWFRQAPGKEREFVAVIEWDGGTSYYVDSVKGRFTISRDNAKNTVYLQMNSLKPEDTAVYYCAAGGNQYYSATYSIWNEYDFWGQGTQVTVSS
Turning to B1, the binding result is “binds”.
